± gives the standard error. Variants at the floor of the assay were thinned out.
B1: glmS ribozyme (parent)
chain: AUAAAAGCGCCAGAACUACAGAAAUGUAGUUGACGAGGAGGAGGUUUAUCGAAUUUUCGGCGGAUGCCUCCAAA

Variants of: B1
Experiment: self-cleavage kobs at 640 uM GlcN6P; higher = faster cleavage; RNA array
Settings: with glucosamine-6-phosphate
Outline: (§1)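 Tiles bearing barcoded ribozyme variants, transcribed in situ by E. coli RNA polymerase on sequenced MiSeq chips, were imaged over ~14 h at 37 °C using a hybridised Cy3 probe. Glucosamine-6-phosphate was supplied at 40 μM to 10 mM in HEPES/KCl/Mg(OAc)2 buffer. kobs came from one- or two-exponential decay fits to normalised per-tile medians, and weighted Michaelis–Menten fits then provided kcat and KM.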

Question: A48C C70U C71G was tested. Which “self-cleavage kobs at 640 uM GlcN6P” value did it give?
Answer: < 1e-05 s⁻¹

Question: Which “self-cleavage kobs at 640 uM GlcN6P” value does the source give for G40U G41U C68U here?
Answer: < 1e-05 s⁻¹

Question: For A48G U49C G66A, which “self-cleavage kobs at 640 uM GlcN6P” value is on record?
Answer: < 1e-05 s⁻¹

Question: With U46G U55C C67A as the variant, how does the “self-cleavage kobs at 640 uM GlcN6P” value read?
Answer: 8.32e-05 ± 1.9e-05 s⁻¹

Question: With G44C U56C G59U as the variant, how does the “self-cleavage kobs at 640 uM GlcN6P” value read?
Answer: < 1e-05 s⁻¹

Question: G44C C50G G62U was tested. Which “self-cleavage kobs at 640 uM GlcN6P” value did it give?
Answer: < 1e-05 s⁻¹

Question: With U45G U49G as the variant, how does the “self-cleavage kobs at 640 uM GlcN6P” value read?
Answer: 0.000102 ± 1.6e-05 s⁻¹

Question: U49C U65A was tested. Which “self-cleavage kobs at 640 uM GlcN6P” value did it give?
Answer: < 1e-05 s⁻¹

Question: For A48C C50G C67U C68U, which “self-cleavage kobs at 640 uM GlcN6P” value is on record?
Answer: 0.000151 ± 3.3e-05 s⁻¹

Question: With C58A G62C C70G as the variant, how does the “self-cleavage kobs at 640 uM GlcN6P” value read?
Answer: 5.64e-05 ± 2.6e-05 s⁻¹

Question: With G44U U47G A52G A64G as the variant, how does the “self-cleavage kobs at 640 uM GlcN6P” value read?
Answer: < 1e-05 s⁻¹

Question: For G44U G51A C68U, which “self-cleavage kobs at 640 uM GlcN6P” value is on record?
Answer: < 1e-05 s⁻¹

Question: For U57G A64U U69G, which “self-cleavage kobs at 640 uM GlcN6P” value is on record?
Answer: 0.000149 ± 5.9e-05 s⁻¹

Question: With G40U U65G G66A as the variant, how does the “self-cleavage kobs at 640 uM GlcN6P” value read?
Answer: 9.33e-05 ± 1.9e-05 s⁻¹

Question: With U45A U57G G62A as the variant, how does the “self-cleavage kobs at 640 uM GlcN6P” value read?
Answer: < 1e-05 s⁻¹

Question: For G41C U47A U56C, which “self-cleavage kobs at 640 uM GlcN6P” value is on record?
Answer: < 1e-05 s⁻¹

Question: For U45A U57A, which “self-cleavage kobs at 640 uM GlcN6P” value is on record?
Answer: 0.000159 ± 4.5e-05 s⁻¹

Question: A53C G60A G66A was tested. Which “self-cleavage kobs at 640 uM GlcN6P” value did it give?
Answer: < 1e-05 s⁻¹

Question: How did the “self-cleavage kobs at 640 uM GlcN6P” value turn out when A53G G62C was run?
Answer: < 1e-05 s⁻¹

Question: U47A G66U C68A was tested. Which “self-cleavage kobs at 640 uM GlcN6P” value did it give?
Answer: 0.00243 ± 0.00077 s⁻¹

Question: With G40C G44U U47C U55A as the variant, how does the “self-cleavage kobs at 640 uM GlcN6P” value read?
Answer: < 1e-05 s⁻¹

Question: A52G U56G C67A U69C was tested. Which “self-cleavage kobs at 640 uM GlcN6P” value did it give?
Answer: 9.46e-05 ± 1.8e-05 s⁻¹

Variants of: B1
Experiment: self-cleavage kobs at 2500 uM GlcN6P; higher = faster cleavage; RNA array
Settings: with glucosamine-6-phosphate
Outline: as §1

Question: How did the “self-cleavage kobs at 2500 uM GlcN6P” value turn out when G40U G41U C68U was run?
Answer: < 1e-05 s⁻¹

Question: A6U A14G U56A was tested. Which “self-cleavage kobs at 2500 uM GlcN6P” value did it give?
Answer: 0.000586 ± 0.00023 s⁻¹

Question: How did the “self-cleavage kobs at 2500 uM GlcN6P” value turn out when G7A A53U G59A C70U was run?
Answer: < 1e-05 s⁻¹

Question: How did the “self-cleavage kobs at 2500 uM GlcN6P” value turn out when U46G U55C C67A was run?
Answer: 6.57e-05 ± 1.5e-05 s⁻¹

Question: Which “self-cleavage kobs at 2500 uM GlcN6P” value does the source give for G44C U56C G59U here?
Answer: < 1e-05 s⁻¹

Question: With G7A U45A U49G as the variant, how does the “self-cleavage kobs at 2500 uM GlcN6P” value read?
Answer: < 1e-05 s⁻¹

Question: With G7A G41C C67U as the variant, how does the “self-cleavage kobs at 2500 uM GlcN6P” value read?
Answer: < 1e-05 s⁻¹

Question: Which “self-cleavage kobs at 2500 uM GlcN6P” value does the source give for U45G U49G here?
Answer: 0.000422 ± 8.4e-05 s⁻¹

Question: Which “self-cleavage kobs at 2500 uM GlcN6P” value does the source give for A48C C50G C67U C68U here?
Answer: 0.000255 ± 8.7e-05 s⁻¹

Question: For A6U G41C U65A G66C, which “self-cleavage kobs at 2500 uM GlcN6P” value is on record?
Answer: < 1e-05 s⁻¹

Question: With A6C U30C A39U U47A C50U A53C as the variant, how does the “self-cleavage kobs at 2500 uM GlcN6P” value read?
Answer: < 1e-05 s⁻¹

Question: How did the “self-cleavage kobs at 2500 uM GlcN6P” value turn out when A6U C10A C11G G35U was run?
Answer: < 1e-05 s⁻¹

Question: How did the “self-cleavage kobs at 2500 uM GlcN6P” value turn out when G44U G51A C68U was run?
Answer: < 1e-05 s⁻¹

Question: Which “self-cleavage kobs at 2500 uM GlcN6P” value does the source give for U57G A64U U69G here?
Answer: 6.09e-05 ± 1.5e-05 s⁻¹

Question: With A6U G38A C50G C67U as the variant, how does the “self-cleavage kobs at 2500 uM GlcN6P” value read?
Answer: 6.17e-05 ± 1.7e-05 s⁻¹

Question: Which “self-cleavage kobs at 2500 uM GlcN6P” value does the source give for G40U U65G G66A here?
Answer: 0.000269 ± 8.2e-05 s⁻¹

Question: Which “self-cleavage kobs at 2500 uM GlcN6P” value does the source give for U45A U57G G62A here?
Answer: < 1e-05 s⁻¹

Question: With U45A U57A as the variant, how does the “self-cleavage kobs at 2500 uM GlcN6P” value read?
Answer: 0.000423 ± 7.9e-05 s⁻¹

Question: A6U C8U C58G was tested. Which “self-cleavage kobs at 2500 uM GlcN6P” value did it give?
Answer: < 1e-05 s⁻¹

Question: A53G G62C was tested. Which “self-cleavage kobs at 2500 uM GlcN6P” value did it give?
Answer: < 1e-05 s⁻¹

Question: How did the “self-cleavage kobs at 2500 uM GlcN6P” value turn out when A6U C11G G44C C68G was run?
Answer: < 1e-05 s⁻¹

Question: U47A G66U C68A was tested. Which “self-cleavage kobs at 2500 uM GlcN6P” value did it give?
Answer: 5.79e-05 ± 1.7e-05 s⁻¹

Question: How did the “self-cleavage kobs at 2500 uM GlcN6P” value turn out when G40C G44U U47C U55A was run?
Answer: < 1e-05 s⁻¹

Question: How did the “self-cleavage kobs at 2500 uM GlcN6P” value turn out when G7A G29U G59A G62U was run?
Answer: < 1e-05 s⁻¹

Question: How did the “self-cleavage kobs at 2500 uM GlcN6P” value turn out when A6G G9A G38A A48G A53G C71G was run?
Answer: < 1e-05 s⁻¹

Question: For A52G U56G C67A U69C, which “self-cleavage kobs at 2500 uM GlcN6P” value is on record?
Answer: 0.000192 ± 5.3e-05 s⁻¹

Variants of: B1
Experiment: self-cleavage kobs at 10000 uM GlcN6P; higher = faster cleavage; RNA array
Settings: with glucosamine-6-phosphate
Outline: as §1

Question: How did the “self-cleavage kobs at 10000 uM GlcN6P” value turn out when A6U A14G U56A was run?
Answer: 0.00142 ± 0.00018 s⁻¹

Question: For U49C U65A, which “self-cleavage kobs at 10000 uM GlcN6P” value is on record?
Answer: < 1e-05 s⁻¹

Question: Which “self-cleavage kobs at 10000 uM GlcN6P” value does the source give for A52G U56G C67A U69C here?
Answer: 0.000295 ± 8.2e-05 s⁻¹
